Test: label from the status in PepcDB records
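Also: failed if final PepcDB status was selected cloned or expressed and not failed if soluble or beyond.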

Sequence | protein production
MSVKMKKCSREDLQTLQQLSIETFNDTFKEQNSPENMKAYLESAFNTEQLEKELSNMSSQFFFIYFDHEIAGYVKVNIDDAQSEEMGAESLEIERIYIKNSFQKHGLGKHLLNKAIEIALERNKKNIWLGVWEKNENAIAFYKKMGFVQTGAHSFYMGDEEQTDLIMAKTLILEHHHHHH | not failed
MSVKVMKRLGTLLLLVCVLIILIPQSASAHAYVVKSNPTENETLKKAPSVVKIEFDEDIQVSRFNTLYVRDTSGKRVDLKDAHIDKKNKKLLEAGLKENLKNGLYSIQWKAISADGHPIQGVIPFRIGLAEAETDDVQVEEMGYVPQIDMIMERGILYTSFSLFIGVLFFNLIMYKGNATSVRSRSKNIIWISLFGILISLLFNLPLQAKINADVSWLEAFNPLLLKETLQLSVFGYVWITQMVLISTLIIVTYFAVKHEKFSSFKVWSIPILLFIGLLVMKAFNSHAYGLKFKDIAVVMDFLHLFAASLWVGGLSSIILLLRNEDNKWHMYWDMIKRFSPWATGAVIVILITGLFNSTFFIPTIHSLFDTKYGLVLLTKILLFIFMGILGIIHYVKGRMRAQQGLGATVKVEFIIGIIIFVIVAFMTNVQTPPMPPTGPFTESKQLDNGYEMTLNVSPNRVGQNIFHITLKDENGQPVTDMEQIILTTQSLDMNMGKGSFKVSAVSPGEYEAEGMYINMTGNWNIQVHGLTKSLDSFDTDYKFIVGGR | failed
MSVLAIIFLLNLKPTIYSIVGIFLIIILDVTVAVALYFLLRPVSKNISMLMSLFRIVYAAIFTTALYKIHDLTAFYSILDLGYIFFGIHLFLLGFLVYKSGYMPKWLGALIFIASTGYIIDPLLRFSGYAVEIGMYTFFGEVLFAFWLVIKGRKLSEVVSTP | failed
MSVLQGFEEVNMTAPRGKLSMLVTKDVVRFNKATAIALGYPAYVKVLINDKTKQFAVKPCKQSDANAVKFSKPEGKQTASVNIKDVMVLDSVLKYFKLDEPQDGQVTFQSMQGTFYPEERVAMFSVADAKAGVMKKRGRKKSESEEA | failed
MSVNMDELRHQVMINQFVLAAGCAADQAKQLLQAAHWQFETALSTFFQETNIPNSHHHH | not failed
MSVNTNEGSKNLWKDLPLELLSSVMTFLEIKDNVRASVVCKSWFEAAVSVRVIDKSPWLMYFPETKNTYDFYDPSNCKKYTMELPKSLVGFIVRYSKDGWLLMSQEDSSHFVLFNPFTMDVVALPFLHLFTYYQLVGFSSAPTSSECVVFTIKDYDPGHVTIRTWSPGQTMWTSMQVESQFLDVDHNNVVFSNGVFYCLNQRNHVAVFDPSLRTWNVLDVPPPRCPDDKSWNEGKFMVGYKGDILVIRTYENKDPLVFKLDLTRGIWEEKDTLGSLTIFVSRKSCESRTYVKDGMLRNSVYFPELCYNEKQSVVYSFDEGRYHLREHDLDWGKQLSSDNIWIEPPKNAFELV | failed
MSVPTTMFRLTGRDYPPAKLSHASLIIIDAQKEYLSGPLKLSGMDEAVANIARLLDAARKSGRPIIHVRHLGTVGGRFDPQGPAGQFIPGLEPLEGEIVIEKRMPNAFKNTKLHETLQELGHLDLIVCGFMSHSSVSTTVRRAKDYGYRCTLVEDASATRDLAFKDGVIPAAQIHQCEMAVMADNFACVAPTASLI | not failed
MSVQLKCDAVNCVYNRSHLCSAEEIEVQGGETTGGDATFCGTFSSKSLGNFVSSLGNMNYSGSLKQAVSAEPIMDPKVHCNAVNCTYNDQRYCHADQVEIRNEVSHTAEETECQTFYPKMSLEHHHHHH | failed
MSVQTIERLQDYLLPEWVSIFDIADFSGRMLRIRGDIRPALLRLASRLAELLNESPGPRPWYPHVASHMRRRVNPPPETWLALGPEKRGYKSYAHSGVFIGGRGLSVRFILKDEAIEERKNLGRWMSRSGPAFEQWKKKVGDLRDFGPVHDDPMADPPKVEWDPRVFGERLGSLKSASLDIGFRVTFDTSLAGIVKTIRTFDLLYAEAEKGS | not failed
MSVSGQPVLRAAVVTLQGRREDNQDFAAIAEPSPRDAAARGFVAAVADGIGGARGGRVAAEVSVRSFMEAYYGLSETLGMQQLLDRCLGSANRWVHAMGRLDPELAHMGTTFSGLIFRGRRAYLVHVGDSRIYRLRGDEPELLTSDHTLSGPGLDHVLYRAVGLDPGLRIDYSVYPLEPHDRFLLCSDGLHGSLQQEQIREILQERATPETTAEALARLAFEQGSQDNITALVVDVIALPPAEKQSLRLAIESLPLLDLPEVGDEVDGFRLERLLSSGRYSALFLAADTLGQDKPVVVKFPHPRVASEREYYDAFVREAWIGARVKSPWVGEILEQTPGRQSRLYSVMPFYPGASLEHELARRPRIGLEAGIDLALKLCKAVHALHRQQIVHRDIKPDNVLLDPEGGLKLLDLGIARLPAWDEDQADPIPGTPSYMAPEMFQGERGSIATDVFALGVTLYRTFAGGAYPYGEVEPFSTPRFGSPRPLTAHRPDLPAWLDAVLARAIAADPAQRPADAVELAYELEAGLEKGGGRRPPRRPLPLYERNPLQFWKAVAALLLALLAMAGLRLSLSCRPPSEAASRNNPLIHDNGDSR | failed
MSVTTTETTGTAPALPRKTLGLAMIGLAVMMTLLHYAGLLPAWLHRLPEAIIPPFATWLDAIFNFVKDDLGLLALTRLLTDGLEVVLDATANLLFGKRRWPNIGPIPWSAIAAMTAVVGYYLGGWRMALLAGGTFVWTAMIGQWDIAMQTMSVLVVAAPLAFAIGLVLGISAWKSPSFDAVLRPVLAVLQTLPFFTYLLPAVIFFKVGPTAGAVATTVYAIPPMILMTTLGLQKVSPEVVEAGKMSGCTRWQMLRHVYIPAARTEILVGVNQVIMLCLAMVVLTAFIGMPGLGAKLLAMMGSFKIGRSFEIGVTIVLLAVTLDRMSKAWVVKLPEHFERGTPFWIRHKFLLMAIGAFVGFTLIAQVVPILSEVGRKQSWSQGKEIDTLIKGFLAIDAVQAITNSIRYVLNIWVLNPLRDFMLSIPTVAFVLFISAAALLVAGRREAVLAAAFFGLVALTGWWDRSVITLYSVLAAVSIALLLGVPIGVVAARKEKTANAVLLACDTAQTFPSFIYLIPAIMLFGITATSVVMSILIFSMVPLVRYTIEGLRNVPDEMTEAADMAGATRMQKLWNVQLPLALPTMAVGFNQAIMFAFFMVIIAAFIGTQDLGQELQRTLAGTDLGKNFVLGICVTLMALTFDMVIMKWADDKKARLGLN | failed
MSVVSPDPAPVPHDPQRRALLRWLVGGGALAGGLGVSAVAQGYRFGVTHEQWNLVGLTRPVRLALLTDLHYGLYIGAGSVRRWVDATLAECPDLILLGGDLVDSHFDAAARPQQTAALLAELGRLRAPLGVYAVWGNHDYGSFGRSISQSPEASRADWAARRDALRAGLAGQGVTVLLNEGRSLRDDLWLGGVDDLRMGEADSVAALRGSGTRATVLLAHNPDVLLRLRSAPGLVLSGHTHGGQVRLPLLGALKVPADPRFTMGWVRGPQGIPAYVSRGLGMSGLPVRNLCEPEITLLTLLPPGALEHHHHHH | failed
MSWFTTQRHSGLCRDFGRRWRRVATISSAIALICAQPLFAVPAAKPNEDFFSIAKSIELLGDVYKNVAQNYVDPVNVSEFMYSGIDGMLGQLDPYTAFLDEEQSGELDEITSGQYAGIGVTLGIFSGDLFIISVIDGQPAAKAGLKVGDQIIAIDGVKVSKKSIDEVRSTIKGSPGTNIRLSIKRDGQGPLTVISLTRGEVRISSVPFFGLFGSSGYVQMNSFSEHSREELSAAIRKIRQEAAKNRVVLNGIVLDLRGNPGGLLTSAVEVAGLFVEKNSRIVSTRGRAADSEQVYVTKTEPQEPTLPLVVMIDGDSASASEIVSGAIQELDRGVILGENSFGKGLVQSIINLPYDHILKMTTAKYYTPSGRLIQKPIARDESRRKVVLSNGDADSTKVFYTRNRRKVYGGGGIRPDVVAKADSLSEYQHKIENSGLLFRYASRFHRKHPEFRLQQLSSEPLYDDFNRFLEKEHFSFRSGAQKTLDSLKTLVQKEAGADKALAGQLDALDKALAASTRRNISRDSLHITAALQREIMRHYDERAALKRAIEDDPVAAKAFALLGDQKRYRSLLKP | failed

From a protein production outcome set (Wang et al. 2014)
